{"source": "patent US20220169693A1", "about": "“Screening Assays, Modulators and Modulation of Intracellular Signalling Mediated by Immunoglobulin Superfamily Cell Adhesion Molecules” (Monash University, priority 2018, published 2022)", "format_in_all_cases": "cell-based", "key": {"[1]": {"target": "T1, full length murine ALCAM1-583 (Mus musculus, UniProt Q61490)", "T1 construct": "host or cells: AT1R-CHO (CHO stably transfected with human AT1R-Rluc8), transient transfection; untagged clone in pCMV6", "T1 sequence (Q61490 28-583)": "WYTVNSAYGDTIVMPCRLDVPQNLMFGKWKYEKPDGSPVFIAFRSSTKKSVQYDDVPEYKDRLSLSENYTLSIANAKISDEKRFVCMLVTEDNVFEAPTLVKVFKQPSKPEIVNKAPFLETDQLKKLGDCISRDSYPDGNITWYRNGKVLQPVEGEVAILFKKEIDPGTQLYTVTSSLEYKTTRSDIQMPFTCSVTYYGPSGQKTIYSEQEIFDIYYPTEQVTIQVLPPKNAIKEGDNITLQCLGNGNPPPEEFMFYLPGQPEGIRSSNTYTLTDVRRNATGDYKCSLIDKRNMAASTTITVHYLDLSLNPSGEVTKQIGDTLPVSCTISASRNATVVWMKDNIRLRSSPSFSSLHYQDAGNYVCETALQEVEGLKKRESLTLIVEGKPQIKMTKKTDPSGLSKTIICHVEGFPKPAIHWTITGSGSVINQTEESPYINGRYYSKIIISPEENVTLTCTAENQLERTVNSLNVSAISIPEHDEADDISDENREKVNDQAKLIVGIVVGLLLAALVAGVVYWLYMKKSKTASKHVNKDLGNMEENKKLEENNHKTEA", "assay": "Ang II-induced p65/PCNA expression in AT1R-CHO cells transfected with full length murine ALCAM (qRT-PCR)", "experimental": "(§1) Adult retinal pigment epithelial (ARPE) cells were cultured in Dulbecco's modified Eagle's medium (DMEM)/F12 endothelial cell growth supplement (ECGS) supplemented media. Chinese Hamster Ovary (CHO) cells were cultured using F12 media (10% FCS with 2 mM glutamine). Human microvascular endothelial cells (HMEC) were cultured in MCDB 131 medium (10% FCS with 10 mM glutamine, EGF and hydrocortisone).\n(§2) 100 ng of AT1R-Rluc8 construct was transfected into CHO cells using Lipofectamine 2000 (Thermo). Stable transfectants were selected using G418. AT1R-CHO were then transiently transfected with the IgSF CAM and/or RAGE constructs using Lipofectamine 2000 (Invitrogen) and incubated for 16h.\n(§3) Oligonucleotides were designed and ordered to generate the ALCAM, BCAM and MCAM intracellular (cytosolic) domains. These included a 5′ NheI site, Kozak sequence and initiating Methionine and then DNA sequences corresponding to ALCAM residues 552-583, BCAM residues 569-628 and MCAM residues 584-637 respectively (Note that as residue 551 of ALCAM is Methionine, the cytosolic tail of ALCAM effectively corresponded to residues 551-583). The pCIneo parental vector was digested with NheI and NotI restriction enzymes, and the DNA of the fragments of the ALCAM, BCAM and MCAM tails/cytosolic domains were ligated into the digested plasmid. After transformation and recovery, colonies were screened and individual clones sequenced. The sequence of the insert was confirmed by DNA sequencing (Micromon, Monash University). A full-length clone of Mouse ALCAM (BC027280) was purchased from Origene. The untagged clone was supplied in the vector pCMV6. […]\n(§4) After 2 hours of exposure to Ang II (1 μM) cells were placed in Trizol, mRNA extracted and cDNA synthesized. Changes in the gene expression of the NFκB subunit, p65 (RelA) or NFκB-activated target genes (e.g ICAM-1) were estimated by quantitative real-time RT-PCR, performed using the TaqMan system based on real-time detection of accumulated fluorescence (ABI Prism 7700, Perkin-Elmer Inc, PE Biosystems, Foster City, Calif., USA). […]"}, "[2]": {"tested_on": "full length chicken EpCAM", "sequence (as listed by the source)": "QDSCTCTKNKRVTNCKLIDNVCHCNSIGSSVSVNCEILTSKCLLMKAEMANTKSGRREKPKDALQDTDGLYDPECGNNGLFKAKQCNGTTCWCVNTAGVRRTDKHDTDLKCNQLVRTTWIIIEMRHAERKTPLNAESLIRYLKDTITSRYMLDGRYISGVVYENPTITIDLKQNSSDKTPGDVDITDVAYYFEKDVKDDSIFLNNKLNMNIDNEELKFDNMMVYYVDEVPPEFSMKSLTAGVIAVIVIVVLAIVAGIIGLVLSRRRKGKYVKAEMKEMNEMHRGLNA", "assay": "Ang II-induced p65 expression in AT1R-CHO cells transfected with full length chicken EpCAM", "details": "Ang II 1 μM, co-transfection (FIG. 3D)", "experimental": "as §1, §2\n(§5) After 2 hours of exposure to Ang II (1 μM) cells were placed in Trizol, mRNA extracted and cDNA synthesized. Changes in the gene expression of the NFκB subunit, p65 (RelA) or NFκB-activated target genes (e.g ICAM-1) were estimated by quantitative real-time RT-PCR, performed using the TaqMan system based on real-time detection of accumulated fluorescence (ABI Prism 7700, Perkin-Elmer Inc, PE Biosystems, Foster City, Calif., USA). Gene expression was normalized to 18S mRNA and reported as fold change compared to the level of expression in untreated control mice/cells, which were given an arbitrary value of 1."}, "[3]": {"target": "T1, full length murine ALCAM1-583", "assay": "S100A8/A9-induced PCNA expression in CHO cells transfected with full length murine ALCAM", "details": "S100A8/A9 1 μM 2 h, co-transfection (FIG. 4A)", "experimental": "as §1\nas §3, with “plasmid.” for “plasmid. After transformation and recovery, colonies were screened and individual clones sequenced. The sequence of the insert was confirmed by DNA sequencing (Micromon, Monash University). A full-length clone of Mouse ALCAM (BC027280) was purchased from Origene. The untagged clone was supplied in the vector pCMV6.”\nas §4, with “After 2 hours of exposure to Ang II (1 μM) cells were placed in Trizol, mRNA extracted and cDNA synthesized.” left out"}, "full length RAGE1-404 [4]": {"target": "T2, full length RAGE1-404 (Homo sapiens, UniProt Q15109)", "T2 sequence (Q15109 23-404)": "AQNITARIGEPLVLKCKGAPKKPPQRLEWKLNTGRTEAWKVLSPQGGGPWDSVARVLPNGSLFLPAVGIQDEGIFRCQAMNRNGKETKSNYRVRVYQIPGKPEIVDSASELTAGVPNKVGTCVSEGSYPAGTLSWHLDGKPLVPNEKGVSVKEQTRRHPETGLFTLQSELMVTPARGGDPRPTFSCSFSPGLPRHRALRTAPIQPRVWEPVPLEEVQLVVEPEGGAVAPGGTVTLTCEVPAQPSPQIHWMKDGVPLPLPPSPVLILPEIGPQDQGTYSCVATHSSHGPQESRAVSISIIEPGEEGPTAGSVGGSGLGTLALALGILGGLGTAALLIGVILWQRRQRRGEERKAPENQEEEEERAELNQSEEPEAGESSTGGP", "assay": "S100A8/A9-induced PCNA expression in CHO cells transfected with full length RAGE", "parameters": "expressed in transfected cells; host or cells: CHO cells", "details": "S100A8/A9 1 μM 2 h, co-transfection (FIG. 4B)"}, "full length RAGE1-404 [5]": {"target": "T2, full length RAGE1-404", "assay": "Ang II-induced p65 expression in AT1R-CHO cells transfected with full length human RAGE", "parameters": "expressed in transfected cells; host or cells: AT1R-CHO (CHO stably transfected with human AT1R-Rluc8), transient transfection", "details": "Ang II 1 μM 2 h, co-transfection (FIG. 6A)", "experimental": "as §1, §2, §5"}, "[6]": {"target": "T3, cytosolic tail of MCAM, MCAM584-637 (Homo sapiens, UniProt P43121)", "T3 sequence (P43121 with tags, fused parts or gaps)": "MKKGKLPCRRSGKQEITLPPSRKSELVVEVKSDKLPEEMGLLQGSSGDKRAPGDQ", "assay": "Ang II-induced p65 expression in AT1R-CHO cells transfected with cytosolic tail of MCAM", "parameters": "corresponds to residues 584-637 of MCAM plus an initiating Methionine; initiating Methionine (N); expressed in transfected cells; host or cells: AT1R-CHO (CHO stably transfected with human AT1R-Rluc8); insert in pCIneo", "details": "Ang II 1 μM, co-transfection (FIG. 3I)", "experimental": "as §1, §2\nOligonucleotides were designed and ordered to generate the ALCAM, BCAM and MCAM intracellular (cytosolic) domains. […]\nas §4"}}}
{"sequence": "MKHVNKDLGNMEENKKLEENNHK [ALCAM559-580]", "values": [{"measurement": "induction of p65-NFκB expression by Ang II via AT1R-dependent transactivation of full length murine ALCAM1-583", "setting": "[1]; Ang II 1 μM 2 h, co-transfection of the construct, vs pCIneo (FIG. 3B, 5B)", "value": "prevents induction"}, {"measurement": "p65-NFκB dependent induction of PCNA expression by Ang II via full length murine ALCAM1-583", "setting": "[1]; Ang II 1 μM, co-transfection (FIG. 3C)", "value": "prevents induction"}, {"measurement": "induction of p65-NFκB expression by Ang II via transactivation of full length chicken EpCAM", "setting": "[2]", "value": "prevents induction"}, {"measurement": "ligand-dependent signalling (PCNA expression) via murine ALCAM activated by S100A8/A9", "setting": "[3]", "value": "inhibited"}, {"measurement": "ligand-dependent signalling (PCNA expression) via full length RAGE activated by S100A8/A9", "setting": "full length RAGE1-404 [4]", "value": "inhibited"}, {"measurement": "induction of p65 expression mediated by full length human RAGE1-404 transactivated by AT1 receptor", "setting": "full length RAGE1-404 [5]", "value": "inhibits"}, {"measurement": "induction of p65-NFκB expression by Ang II via transactivation of MCAM584-637", "setting": "[6]", "value": "prevents induction"}]}
